Laboratory results from the supplement of paper PMC12455559.

Assay: purified protein yield per well (BCA); higher = higher soluble expression
Procedure, shortened: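 Candidate enzymes were expressed in E. coli C41(DE3) in 2 mL autoinduction cultures with 100 µg/mL kanamycin, at 37 °C for 2 h and then 18 °C for 40 h. Cells were lysed, and protein was bound to Ni-charged magnetic beads and released by SUMO protease cleavage on an OT-2 robot. The read-out is purified protein yield per well, measured with the Pierce Rapid Gold BCA kit. Values below 25 ug (0.1 mg/mL) are below the detection threshold.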

Sequence	purified protein yield per well
SGGSSPDGPRESRQDGPSSAGPSYPSAGPLEGPYEVRTQTVGPDDVGGRFRGGTVYYPADGSRDYGVIAASPGLGADQSMVQAYGALLASHGFVLITFDTKTPQDSPAQRGRQMLDALDWAAEHSAAAGRADPDRLGVMGHSMGGGAALHAASRDPRIKAAVPLTPYAGKRDWSGVTAATLVVSGSDDEVAPPSGHARAFYDGLDDAKEKAYLELKGDHFVATPPDRLVSRQTVAWFKHFVGGDKAAGEDLCPAPREERVVASRDTCPYG [TEP134]	< 25 µg
SNPAPEPSPTPSPSPSQPSNPFQRGPNPTVASVESAGPFAVRTSRVSSAVSGFGGGTIYYPSGTTGTMAAIVVIPGYVSSQSSIEWWGPRLASNGFVVMTIDTNATTDQPPARARQINAALDYLIAQNRASGSPVNGMIDTSRLGVVGWSMGGGGTLRVASEGRIKAAIPLAPWDTTTFRNVKAPTLIFACESDTIAPVRNHASPFYNQVPTSIPKAFVQLNRGNHYCANGGNAFNADLSRLGVSWMKRFLDNDRRFSQFLCGPN [ESM016]	< 25 µg
SPPIVRYDYAPGKYSGNGPYSYSTYQLPGWSPGATVYYPTNASPPFSGIVFCPPYTGTQSNFAAWGPFFASHGIVLVTMDTSSTLISVDQRAIEQRMVLDLLKAERNRPGSPLYNKIDPERVGAMGWSMGGGASWINSAEYPGLKTAMSLAGHHLTAINPNAKGYGTQCPTIIFCGLLDQTILGGMLQSETVYYNIPSGIPKVFYEVSTAGHFVWYSPTAANSHVAELALAFQKTFLDGDTRWEQYIEEPLFD [TEP034]	< 25 µg
SPVLALVAGPALANPYQRGPDPTDASITAETGPFKTASVVVPSNTDPGFAGGTIYYPTDTSQGTFAPIVVTPGFVSPQWAISWYGPRLASQGFVVMTIDTLGLFDVVDQRGKEMLAALDYLTNRSAVKDRIDPTRPGLMGHSMGGGGVIRAAAERPGIKAVVPLAPWDPNSSYAWNVKADTLVVGGESDMIAPVAANAEPIYKDLRSAPEKAYLELSGADHVFAFNLPNTTIAKYAIAWMKRFLDDDVRYDRFLCPAPAPGGAIKQYQDTCPNG [TEP158]	< 25 µg
SQGTFGAAVVSPGFLSPQVAWAGPRIASHGFVVLTIDTNTIFDSPTSRSQQLQAALSYLVSPASGVANRIDPSRLAAMGHSMGGGGTLELAARLPTLQAAVPLQPWDIAQSFSGIRVPTMIIGAQADFIAPVASHSEPFYQQVPATTEKAYLEVAGADHLIGLLGNPTQARYSVAWLKRYVDDDTRYDQFICPPPSGPTISEYRNTCPP [TEP153]	< 25 µg
SSVNCDSLAQIALLNPGPYSVSSLDESDNIRNGPDYAGAHIYYPTNASGSLSSIVLVPGFMNFESTLQNWGPFLAAHGIVTMTIGANYLTDSPTHRKEALLDAIVTLKAEQTRIGSPLYYSLNINNFAVGGFSMGGGGAQLAAVSDPTIKAIIALNPYLSNASEADFNHNCPVLITSGELDFIANPNLHANVHYAVTPDSTPKQLYEIQNAGHDPLIGPNGGYGEVGMKVLSWLQAFLNDNHCYCPPILTVPTTASSFTHNIVCEDLFIQGCTDSTACNYNPNATIDDGSCETQSCACPGDLNGDYAITVADVLLTLSEFGCMTNCTADIDGDGFVNVTDILELLSMFGTVC [TEP145]	< 25 µg
STPAHHAAARTAAHHHAPFAVRATVVPKTAVKAFGGGVIYTPQDTGKAVLGAVVITPGFTDTSADEKEMAELVASQGFVAFAIDTLDTGDLPDQRATEILAAADYLTGQSAVRSEVSAKDVGLIGYSFGGGGTMQAAQARPSIKAAIGLMPYDFPPADQPDAQYPAYPKLTTPTLVITGQKDDLAVPAEFGKPAYDSIPAGTPKQYLELKGLGHAAGEHVPVATIRTAVTAFLKRYLDGNSAYAKYICPAPKVGGPISASTSSCPKG [TEP196]	< 25 µg
STPVHHAAARTAVPHHAPFAVRTTVVPKTAVKAFGGGVIYTPQDTGKPVLGAVVITPGFTDTNADEKATAELVASQGFVAFAIDTLDVYDLPDQRATEMLAAADYLTGTSAVKSEVSANDVALLGYSFGGGGTMQAAQSRPSIKAAVTLMPYDFPPADQPDAQYPAYPKLTVPTLVITGQKDDVAVPADFGKPAYDSIPAGTPKQYLELKGLDHYAGHRAPTPTIRTAVTAFLKRYLDGNSAYAKFICPAPKVGGPITASISSCPKG [ESM164]	< 25 µg
STPVHHAAASYTSTAAHHHAPFAVRTTVVPKTAVTTFGGGVIYTPQDTGKPVLGAVVITPGFTDTNANEKEMAELVASQGFVAFAIDTLTTDDLPDLRATQMLAAADYLTGQSAVRSQVSKDDVGLIGYSFGGGGAMQAAQSRPSIKAAIGLMPFDFPPATDPDAMYPAYPHMTTPTLVITGQKDDVADPKDFGKPAYDSIPAGTPKQYLELTGLGHAAGQHVPVATIRTAVTAFLKRYLDGNSAYAKYICPAPKVGGPISASLSSCPKG [TEP069]	25.8 µg
TPEAPAARAAENPYERGPDPTESSIEAPRGSYSVSERSVSSLSVRGFGGGTIYYPTSTADGTFGAVAISPGFTARQSSMAWYGERLASQGFVVFTIDTNTTMDQPASRGDQLLAALDYLTDDSAVRSRIDSNRLAVMGHSMGGGGSLEAAKDRPSLKAAIPLTPWNTDKSWPEVRVPTFIVGADGDSIASVRSHAEPFYESLPSSTDRAYMELRNATHFAPNSADTEIAKYSISWLKRFVDEDTRYEQFLCPIPSSDLQIAEFRGNCPH [TEP075]	< 25 µg
TQSGPYQVKRYREKDGLRNGPRYRGATVYYPTDARGLLASIVIVPGYISPERSIRAWGPFYASHGIVAMTIGTNRPQDAPAARRRALLDAITSLKLENHRANSPLKGRLAVTRIAVSGWSMGGGGALEAATRAPQLKAVVALCPWNPYQTFSHRVPVLFLAGQRDRLAPVSDNALRHYEKTPASTPKLLFEVRNEGHWVANTPQGGNGAIGRLALS [TEP155]	< 25 µg
VANPYQRGPAPTEASVTAKLGPFAIASKKVGAFSHPGIREGTVYYPTDTSQGTFGAIAVAPGFVSPEALVSWYGPRLASQGFVVMTLEITTGFDLPEARAAQLLSALDFMKKDNTIKNRIDPNRLAVMGWSMGGGGTLRAAQQSASLKAAIPLAPWDLGMDWSNVRVPTMIIGGDNDFVASPGFHAEPFYTQLADEKAYLELENAGHFTFTSDNNTIAKYAISWMKRWVDEDTRYTQFLCPPPPAPSPTIQKYRQTCPY [DP046]	< 25 µg
VASPYQRGPDPTVASIEASRGPFAIAQTTIAASSVRGFRGGTVYYPTSTAEGTFGAVAISPGYTATQSSVAWLGPRLASQGFVVVTIDTLSRYDQPASRGTQLLAALDHLTTASSVRTRIDRNRLAVMGHSMGGGGSLSAANTRPTLQAAIPLTGWHTVKNWSGVRVPTLVVGAENDSIAPVTSHSEPFYTSLPSTLDKAYLELNAAGHSAPTSSNVTVAKYSISWLKRFVDDDTRYEQFLCPAPRGTAIQEYRDTCPHS [DP083]	< 25 µg
VEIGPAPTSTLLNGDGPFAVSTDSVSSLVTGFGGGTIYYPTTSGQYAAVAVCPGFTGTSSSISWFARRLATHGFVTIAMNTNTIYDYPSSRATQLAAALRYLLNSSSSTIRARIRTADRAVAGHSMGGGGTLIASANDSTLRAGIPLTPWNTYTSFSSVRVPQMIFGADGDTIAPYASHARPFYNSLSYPEKAYALLNGATHFTPNSTDQRIGRYGVAFAKRFVDGDTRYTPFLCGAEHTAYATSSRFDTYLSTCPY [TEP032]	< 25 µg
VEIGPAPTSTSLNSDGSFAVSSASVSSSACGSGCAGGTVYYPNTAGSYGVIAVCPGFTNTSSAISWFARRMATHGFVTIAMNTNSRYDFPASRATQLRAVLNYLVNSSSSTIRSRIRSADRGVSGYSMGGGGTLLASRDDSTLKTGVPMAPYNSGTISGVNVPQMIIGGSNDSIAPVSSMARPFYNNIPSTVKKALAVLNGASHLTFTSYDERAARYGVAFAKRFADGDTRYTPFLCGAEHTAYATSSRFTEYSSNCPY [ESM020]	< 25 µg
VENGPAPSLASIQADGPYAVSTQTVSGSGFGGGTVYSPNTAGKYAVVAVCPGFTATQSSIAAISRRLATHGFVVVTINTTSVYDFPSSRANQLLAALRTVTALATGPVAGKMDTTRQGVAGWSMGGGGAMLAAGMTPGLKGGVAFAPWSQSNNVSRSAVPMAYLAGTADTVAPAGSHASVFYNATPATTKKLLGVITGADHNFPKTASQPASYTQVAWMKRFLDGDTRYAQFLKGDTRFTTFRSTGPF [ESM107]	< 25 µg
VENGPAPTFSSVQAEGPFAVSTQTVRGSGFGGGTVYSPNTAGKYAVVAVCPGFTATQSSIALISRRLATHGFVVVTISTNSVYDYPASRANQLLAALRTVTALTTGPVAGKMDISRQGVAGWSMGGGGAMLAAGMTPGLKAGVAFAPWSLTNNVGSSSVPMAYLAGTADTVAPASSHSTVFYNAMPATTNKLIGVIQGANHYFPGTASQPASYTQVAWMKRFLDGDTRYSQFLNGDSRFATFRSTGPF [ESM102]	< 25 µg
VENGPAPTLAAIQKDGPYAVTAQAIKGSGFGSGTIYVPNAAGQYALVAVCPGFVSPESSITAISKRLATHGFVVVTIATNTLLDFPSSRASQILAALKAAAGTTTGAVAGKIDVSRQVASGWSMGGGGTLEAAASTPGLVAAVAYAPWNTSSTKYKTITVPSLILGGTADVIAPVAQHSQPFYNAIPATTPKMLAVIQGASHFFPNSAGEPQSYTNISWVKRFADGDTRYGTFLNTKDAAFSTVQSTGPF [ESM089]	< 25 µg
VENGPAPTLAALKADGPYAITSQAVPGNGFGAGTVYVPTAAGKYALVAICPGFVSAQSTMTDMAKRLATHGFVVVAISTNTLLDFPPSRASQLLAALKATASLTSGPVVGKIDTSRQAVSGWSMGGGGTLEAAGSTPGLMAAVAFAPWDTSTTKMKVDKVPAAIIGGSSDVIAPVSSHSQPFYNAIPSTTPKLLAVISGASHFFPTTASEPASYTNISWMKRFADGDTRYSQFLNGNDAALSSFTSNGPF [ESM092]	< 25 µg
VENGPAPTLASVQADGPYAVSTQSVSGTGFGGGTVYSPNTAGKYAVVAVCPGFTATQSSIAAISRRLATHGFVVVTINTKSTYDFPPSRANQILAALRTVTALTTGPVAGKMDISRQGVAGWSMGGGGAMLAAGMTPGLKGGVAFAPWAQSSNVSSSAVPMSYLAGSADGVAPPSMSTSFYNATPGTTRKMLGVIRGADHNFPKTASQPASYTQVAWMKRFLDSDTRYSQFLNGDSRFSTFRSTGPF [ESM088]	< 25 µg
VENGPAPTVSSVRADAGSYSVSKTSYADNVTPGFGAATVYAPSNTTGQKFGVVSFAPGWTENQSAVDWIARRTASFGFVTIVFDVNNTFFDFPAARAPQLIAALNFVTGTSNQRNLADASREAVVGHSMGGGATLDAARANPSLKATVGLAPWNPGISYSDVTVPSLEIGAQNDFIAGVSNNARYFYNSLPGSTPKAYTEMKSFGHLQTNYPSAQVGAATVSWLKRYVDGDTRYAPFICGAHTGVQNSELSAYASNC [ESM168]	< 25 µg
VENGPVPTLADLKKDGPYAVTSQKVAGSGFGSGTIYSPNTAGKYALVAVCPGFVSAESSITDISRRLATHGFVVITIGTKTLLDFPSSRATQLLAALKTATTTTTGPVVGKIDTARQVVSGWSMGGGGTLEAAGITPGLKAAVAYAPWHSTTTKIKTSTVPSIIFGATGDVVAPVASHSQKFYDVLPTSTKKQLAVLQGSNHFFPNSAIEPVSYSNISWVKRFADGDTRYSQFLSVADPAWSKVQSNGPF [ESM166]	< 25 µg
